In article PMC8125178, “Fluorescence Correlation Spectroscopy Analysis of Effect of Molecular Crowding on Self-Assembly of β-Annulus Peptide into Artificial Viral Capsid” (International Journal of Molecular Sciences, 2021):

Experiments:
[1] = target: the molecule itself; experiment: fluorescence correlation spectroscopy (FCS); 0.1 μM BODIPY-β-annulus peptide with 0~200 μM β-annulus peptide in 10 mM Tris-HCl buffer (pH 7.0) with 5 wt% PEG2000, 25 °C; ratio of the slow component fitted to the Hill equation
BODIPY-β-annulus peptide [2] = target: T1, BODIPY-β-annulus peptide (tomato bushy stunt virus, BODIPY-maleimide added by Michael addition to the thiol of the N-terminal Cys); experiment: as above; conditions: both partners purified
T1 construct: also called BODIPY-labelled β-annulus peptide; fluorescent-labelled β-annulus peptide; source: synthetic peptide (solid-phase Fmoc chemistry; labelled with BODIPY-maleimide; purified by reversed-phase HPLC)
T1 peptide: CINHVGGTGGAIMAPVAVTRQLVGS

BODIPY-β-annulus peptide [3] = target: T1, BODIPY-β-annulus peptide; experiment: fluorescence correlation spectroscopy (FCS); 0.1 μM BODIPY-β-annulus peptide with 0~200 μM β-annulus peptide in 10 mM Tris-HCl buffer (pH 7.0), sonicated 10 min, incubated 30 min, 25 °C; ratio of the slow component fitted to the Hill equation; apparent Kd; conditions: both partners purified
BODIPY-β-annulus peptide [4] = target: T1, BODIPY-β-annulus peptide; experiment: fluorescence correlation spectroscopy (FCS); 0.1 μM BODIPY-β-annulus peptide with 0~200 μM β-annulus peptide in 10 mM Tris-HCl buffer (pH 7.0) with 10 wt% PEG2000, 25 °C; ratio of the slow component fitted to the Hill equation; conditions: both partners purified
BODIPY-β-annulus peptide [5] = target: T1, BODIPY-β-annulus peptide; experiment: fluorescence correlation spectroscopy (FCS); 0.1 μM BODIPY-β-annulus peptide with 0~200 μM β-annulus peptide in 10 mM Tris-HCl buffer (pH 7.0) with 20 wt% PEG2000, 25 °C; ratio of the slow component fitted to the Hill equation; conditions: both partners purified
BODIPY-β-annulus peptide [6] = target: T1, BODIPY-β-annulus peptide; experiment: fluorescence correlation spectroscopy (FCS); 0.1 μM BODIPY-β-annulus peptide with 0~200 μM β-annulus peptide in 10 mM Tris-HCl buffer (pH 7.0) with 5 wt% PEG2000, 25 °C; ratio of the slow component fitted to the Hill equation; conditions: both partners purified
BODIPY-β-annulus peptide [7] = target: T1, BODIPY-β-annulus peptide; experiment: fluorescence correlation spectroscopy (FCS); 0.1 μM BODIPY-β-annulus peptide with 0~200 μM β-annulus peptide in 10 mM Tris-HCl buffer (pH 7.0) with 15 wt% PEG2000, 25 °C; ratio of the slow component fitted to the Hill equation; conditions: both partners purified
BODIPY-β-annulus peptide [8] = target: T1, BODIPY-β-annulus peptide; experiment: fluorescence correlation spectroscopy (FCS); 0.1 μM BODIPY-β-annulus peptide with 0~200 μM β-annulus peptide in 10 mM Tris-HCl buffer (pH 7.0), sonicated 10 min, incubated 30 min, 25 °C; ratio of the slow component fitted to the Hill equation; apparent Kd; conditions: both partners purified

B1: 24-mer β-annulus peptide from tomato bushy stunt virus (peptide)
peptide: INHVGGTGGAIMAPVAVTRQLVGS
notes: also called unmodified β-annulus peptide; source: synthetic peptide (solid-phase Fmoc chemistry, purified by reversed-phase HPLC)
With B1 the binding result [1] was “binds”, the “ratio of the slow component at 200 μM β-annulus” value (BODIPY-β-annulus peptide [2]) was 76% and the “ratio of the slow component at 200 μM β-annulus” value (BODIPY-β-annulus peptide [3]) was 62%. The Kd (BODIPY-β-annulus peptide [4]) was 6.69 ± 3.25 µM, the Kd (BODIPY-β-annulus peptide [5]) was 5.66 ± 2.15 µM and the Kd (BODIPY-β-annulus peptide [6]) was 14.4 ± 7.81 µM. For the same binder, the Kd (BODIPY-β-annulus peptide [7]) was 4.24 ± 3.22 µM and the Kd (BODIPY-β-annulus peptide [8]) was 45.2 ± 10.6 µM.
